This is an account of results in the RNAGym collection of RNA variant scans (doi:10.1093/nar/gkz1192).

The chains are these.
B1: CPEB3 Ribozyme (parent)
chain: UAACAGGGGGCCACAGCAGAAGCGUUCACGUCGCAGCCCCUGUCAGAUUCUGGUGAAUCUGCGAAUUCUGCUGUAUAUCUC

Variants of B1 are the subject of the series. Put plainly: self-cleavage, relative activity (ratio to wild type); higher = more cleavage; in vitro, sequencing. The method in brief:
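After error-prone PCR and barcoding, CPEB3 ribozyme mutant libraries were transcribed with T7 RNA polymerase at 37°C for 5 hours, then given 15 min with DNase I before an EDTA stop, and they cleaved during both steps. Reverse transcription with template switching preceded Illumina sequencing. Relative activity divides a variant's cleaved/total read fraction by the unmutated ribozyme's. At least 5 reads were required per variant, and three batches were averaged.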
As to UAACAGGGGGCCACAGCAGAAGCGUUCACGUCGCAGCCCCAGUCAGAUUCUGGUGAAUCUGUGAAUUCUGCUGUAUAUCUC [U41A C62U], the self-cleavage amounted to 0.16.

With UAACAGGGGGCCACAGCAGAAGCGUUCACGUCGCAGCCCCAGUCAGAUUCUGGUGAAUCUGAGAAUUCUGCUGUAUAUCUC [U41A C62A], the self-cleavage came out at 0.34. Next, UAACAGGGGGCCACAGCAGAAGCGUUCACGUCGCAGCCCCAGCCAGAUUCUGGUGAAUCUGCGAAUUCUGCUGUAUAUCUC [U41A U43C]: 0.27; UAACAGGGGGCCACAGCAGAAGCGUUCACGUCGCAGCCCCAGGCAGAUUCUGGUGAAUCUGCGAAUUCUGCUGUAUAUCUC [U41A U43G]: 0.4; UAACAGGGGGCCACAGCAGAAGCGUUCACGUCGCAGCCCCAGACAGAUUCUGGUGAAUCUGCGAAUUCUGCUGUAUAUCUC [U41A U43A]: 0.24. Next, UAACAGGGGGCCACAGCAGAAGCGUUCACGUCGCAGCCCCAGUCAGAUUCUGGUGAAUCUGCUAAUUCUGCUGUAUAUCUC [U41A G63U]: 0.3; UAACAGGGGGCCACAGCAGAAGCGUUCACGUCGCAGCCCCAGUCAGAUUCUGGUGAAUCUGCAAAUUCUGCUGUAUAUCUC [U41A G63A]: 0.35; UAACAGGGGGCCACAGCAGAAGCGUUCACGUCGCAGCCCCAGUCAGAUUCUGGUGAAUCUGCCAAUUCUGCUGUAUAUCUC [U41A G63C]: 0.26. Regarding UAACAGGGGGCCACAGCAGAAGCGUUCACGUCGCAGCCCCAGUCAGAGUCUGGUGAAUCUGCGAAUUCUGCUGUAUAUCUC [U41A U48G], the self-cleavage was 0.37. As for UAACAGGGGGCCACAGCAGAAGCGUUCACGUCGCAGCCCCAGUCAGAAUCUGGUGAAUCUGCGAAUUCUGCUGUAUAUCUC [U41A U48A], the figure is 0.22; as for UAACAGGGGGCCACAGCAGAAGCGUUCACGUCGCAGCCCCAGUCAGACUCUGGUGAAUCUGCGAAUUCUGCUGUAUAUCUC [U41A U48C], 0.23; as for UAACAGGGGGCCACAGCAGAAGCGUUCACGUCGCAGCCCCAGUCAGAUUCUGGUGAAUCUGCGAAUUCUGCUGUAUAUCUA [U41A C81A], 0.22. Next, UAACAGGGGGCCACAGCAGAAGCGUUCACGUCGCAGCCCCAGUCAGAUUCUGGUGAAUCUGCGAAUUCUGCUGUAUAUCUU [U41A C81U]: 0.25. On to UAACAGGGGGCCACAGCAGAAGCGUUCACGUCGCAGCCCCAGUCAGAUUCUGGUGAAUCUGCGAAUUCUGCUGUAUAUCUG [U41A C81G], for which the self-cleavage worked out at 0.25. As for UAACAGGGGGCCACAGCAGAAGCGUUCACGUCGCAGCCCCAGUCAGAUUCUGGUGAAUCUGCGAAUUCUGCUGUAUAUUUC [U41A C79U], the figure is 0.41; as for UAACAGGGGGCCACAGCAGAAGCGUUCACGUCGCAGCCCCAGUCAGAUUCUGGUGAAUCUGCGAAUUCUGCUGUAUAUAUC [U41A C79A], 0.32. In the case of UAACAGGGGGCCACAGCAGAAGCGUUCACGUCGCAGCCCCAGUCAGAUUCUGGUGAAUCUGCGAAUUCUGCUGUAUAUGUC [U41A C79G], the self-cleavage came to 0.37. As for UAACAGGGGGCCACAGCAGAAGCGUUCACGUCGCAGCCCCAGUCAGAUUCUGGUGAAUCUGCGAAUUCUGGUGUAUAUCUC [U41A C71G], the figure is 0.1. Next, UAACAGGGGGCCACAGCAGAAGCGUUCACGUCGCAGCCCCAGUCAGAUUCUGGUGAAUCUGCGAAUUCUGUUGUAUAUCUC [U41A C71U]: 0.24; UAACAGGGGGCCACAGCAGAAGCGUUCACGUCGCAGCCCCAGUCAGAUUCUGGUGAAUCCGCGAAUUCUGCUGUAUAUCUC [U41A U60C]: 0.26; UAACAGGGGGCCACAGCAGAAGCGUUCACGUCGCAGCCCCAGUCAGAUUCUGGUGAAUCGGCGAAUUCUGCUGUAUAUCUC [U41A U60G]: 0.23. Consider UAACAGGGGGCCACAGCAGAAGCGUUCACGUCGCAGCCCCAGUCAGAUUCUGGUGAAUCAGCGAAUUCUGCUGUAUAUCUC [U41A U60A], for which the self-cleavage amounted to 0.25. Next, UAACAGGGGGCCACAGCAGAAGCGUUCACGUCGCAGCCCCAGUCAGAUUCUGGUGAAUCUGCGAAUUCUGCUGCAUAUCUC [U41A U74C]: 0.4; UAACAGGGGGCCACAGCAGAAGCGUUCACGUCGCAGCCCCAGUCAGAUUCUGGUGAAUCUGCGAAUUCUGCUGAAUAUCUC [U41A U74A]: 0.29. UAACAGGGGGCCACAGCAGAAGCGUUCACGUCGCAGCCCCAGUCAGAUUCUGCUGAAUCUGCGAAUUCUGCUGUAUAUCUC [U41A G53C]: the self-cleavage was found to be 0.23. In the case of UAACAGGGGGCCACAGCAGAAGCGUUCACGUCGCAGCCCCAGUCAGAUUCUGAUGAAUCUGCGAAUUCUGCUGUAUAUCUC [U41A G53A], the self-cleavage turned out to be 0.38. Next, UAACAGGGGGCCACAGCAGAAGCGUUCACGUCGCAGCCCCAGUCAGAUUCUGGUGAAUCUUCGAAUUCUGCUGUAUAUCUC [U41A G61U]: 0.24; UAACAGGGGGCCACAGCAGAAGCGUUCACGUCGCAGCCCCAGUCAGAUUCUGGUGAAUCUGCGAAUUCGGCUGUAUAUCUC [U41A U69G]: 0.33. Next, UAACAGGGGGCCACAGCAGAAGCGUUCACGUCGCAGCCCCAGUCAGAUUCUGGUGAAUCUGCGAAUUCCGCUGUAUAUCUC [U41A U69C]: 0.24. In the case of UAACAGGGGGCCACAGCAGAAGCGUUCACGUCGCAGCCCCAGUCAGAUUCUGGUGAAUCUGCGAAUUCAGCUGUAUAUCUC [U41A U69A], the self-cleavage was 0.14. Take UAACAGGGGGCCACAGCAGAAGCGUUCACGUCGCAGCCCCAGUCAGAUUCUGGUGAAUCUGCGAAUUCUUCUGUAUAUCUC [U41A G70U]: the self-cleavage was found to be 0.12. For the variant UAACAGGGGGCCACAGCAGAAGCGUUCACGUCGCAGCCCCAGUCAGAUUCUGGUGAAUCUGCGAAUCCUGCUGUAUAUCUC [U41A U67C], the self-cleavage is 0.21.

Regarding UAACAGGGGGCCACAGCAGAAGCGUUCACGUCGCAGCCCCAGUCAGAUUCUGGUGAAUCUGCGAAUACUGCUGUAUAUCUC [U41A U67A], the self-cleavage turned out to be 0.36.

On to UAACAGGGGGCCACAGCAGAAGCGUUCACGUCGCAGCCCCAGUCAGAUUCUGGUGAAUCUGCGAAUGCUGCUGUAUAUCUC [U41A U67G], for which the self-cleavage worked out at 0.18.
